Source: the Human Domainome abundance scans (Beltran et al. 2025)
± gives the uncertainty stated by the source.

B1: Transcriptional regulator ERG, residues 117 to 197; numbered along this chain, P11308 (parent)
chain: NMTTNERRVIVPADPTLWSTDHVRQWLEWAVKEYGLPDVNILLFQNIDGKELCKMTKDDFQRLTPSYNADILLSHLHYLRE

Variants of: B1
Assay: abundance fitness (aPCA) (normalised: wild type 0, dead -1); higher = more abundant; growth selection in yeast, the domain comes from the species named
Details: Homo sapiens
For M2I, the abundance fitness was -0.143 ± 0.084. Variant V39Q has an abundance fitness of -0.219 ± 0.063. With H75P the abundance fitness was -0.561 ± 0.33. In the case of S19G, the abundance fitness is reported as -0.133 ± 0.033. For T16S, the abundance fitness was -0.064 ± 0.054. Variant E28K has an abundance fitness of -0.041 ± 0.064. Work on D58G yielded an abundance fitness of -0.078 ± 0.042. Variant V23G has an abundance fitness of -0.997 ± 0.09. In the case of N1Q, the abundance fitness is reported as -0.011 ± 0.17. With D59M the abundance fitness was -0.204 ± 0.12. Work on D70V yielded an abundance fitness of -0.176 ± 0.056. W18M showed an abundance fitness of -0.635 ± 0.11. L52A gave an abundance fitness of -0.695 ± 0.12. D59A showed an abundance fitness of 0.068 ± 0.078. Variant D59L has an abundance fitness of -0.765 ± 0.18. In the case of S66L, the abundance fitness is reported as -0.239 ± 0.062. In the case of R24C, the abundance fitness is reported as -0.058 ± 0.071. Q45Y showed an abundance fitness of -0.113 ± 0.082. I10A gave an abundance fitness of 0.124 ± 0.039. Work on V23H yielded an abundance fitness of -0.846 ± 0.31. Work on F44G yielded an abundance fitness of -0.382 ± 0.037. With L63K the abundance fitness was -0.213 ± 0.073. K32N gave an abundance fitness of 0.05 ± 0.088. Work on Y78A yielded an abundance fitness of 0.181 ± 0.053. With L79M the abundance fitness was 0.179 ± 0.098. For Q25Y, the abundance fitness was -0.07 ± 0.073. With P15F the abundance fitness was -0.273 ± 0.085. Work on G35T yielded an abundance fitness of 0.061 ± 0.052. In the case of A30D, the abundance fitness is reported as -0.884 ± 0.22. Variant T3V has an abundance fitness of -0.08 ± 0.044. L36I gave an abundance fitness of -0.066 ± 0.089. Variant S66P has an abundance fitness of 0.03 ± 0.1. Variant P65T has an abundance fitness of 0.02 ± 0.093. Variant P12W has an abundance fitness of -0.15 ± 0.044. For N68P, the abundance fitness was 0.017 ± 0.064. For L72D, the abundance fitness was -0.97 ± 0.33. G49T showed an abundance fitness of -1.11 ± 0.2. Work on L42T yielded an abundance fitness of -0.042 ± 0.053. K57N gave an abundance fitness of -0.234 ± 0.14. With D38N the abundance fitness was -0.011 ± 0.076. S66M showed an abundance fitness of -0.295 ± 0.098. K50R gave an abundance fitness of -0.032 ± 0.031. For M55Q, the abundance fitness was -0.924 ± 0.24. Variant G49N has an abundance fitness of -1.08 ± 0.31. For D38A, the abundance fitness was -0.217 ± 0.041. V23W gave an abundance fitness of -0.798 ± 0.14. In the case of R8I, the abundance fitness is reported as -0.323 ± 0.077. Y34F gave an abundance fitness of -0.021 ± 0.087. Y78G gave an abundance fitness of 0.203 ± 0.044. In the case of N40C, the abundance fitness is reported as -0.172 ± 0.071. In the case of R8N, the abundance fitness is reported as 0.028 ± 0.064. For L72E, the abundance fitness was -0.719 ± 0.11. R8Y gave an abundance fitness of -0.496 ± 0.11. L42E gave an abundance fitness of -0.001 ± 0.043. In the case of T4I, the abundance fitness is reported as 0.054 ± 0.086. H77T gave an abundance fitness of -0.119 ± 0.11. I47P showed an abundance fitness of -0.99 ± 0.21. For G49K, the abundance fitness was -0.945 ± 0.15. With D38G the abundance fitness was -0.004 ± 0.031. Variant R24V has an abundance fitness of -0.015 ± 0.04. With P15D the abundance fitness was -0.94 ± 0.17. In the case of L36P, the abundance fitness is reported as -1.08 ± 0.22. N40S gave an abundance fitness of -0.236 ± 0.05. L17W showed an abundance fitness of -0.041 ± 0.051. H22G showed an abundance fitness of -0.18 ± 0.036. With E51D the abundance fitness was -0.087 ± 0.062. In the case of T56R, the abundance fitness is reported as -0.082 ± 0.051. With N5M the abundance fitness was 0.085 ± 0.05. In the case of V31M, the abundance fitness is reported as -0.003 ± 0.071. M55W showed an abundance fitness of -0.091 ± 0.069. For W26E, the abundance fitness was -0.727 ± 0.1. L72Q showed an abundance fitness of -0.697 ± 0.18. In the case of R80F, the abundance fitness is reported as 0.003 ± 0.089. With T56P the abundance fitness was -0.632 ± 0.2. T64M showed an abundance fitness of 0.011 ± 0.056. Work on L79D yielded an abundance fitness of -0.106 ± 0.12. Work on R7A yielded an abundance fitness of 0 ± 0.037. With W18P the abundance fitness was -1.17 ± 0.32. Variant P37I has an abundance fitness of 0.106 ± 0.052. E6P gave an abundance fitness of 0.033 ± 0.06. E6N gave an abundance fitness of 0.017 ± 0.068. With V11R the abundance fitness was 0.209 ± 0.033. Variant N5R has an abundance fitness of -0.044 ± 0.037. Variant V11C has an abundance fitness of 0.106 ± 0.064. W26I gave an abundance fitness of -0.942 ± 0.25. Work on N46I yielded an abundance fitness of -0.379 ± 0.13. Work on D38T yielded an abundance fitness of -0.052 ± 0.05. With E28Y the abundance fitness was -0.093 ± 0.087. Variant T3N has an abundance fitness of -0.025 ± 0.078. With Q61Y the abundance fitness was -0.058 ± 0.1. Variant W18G has an abundance fitness of -0.895 ± 0.086. For K54R, the abundance fitness was -0.049 ± 0.046. In the case of I47E, the abundance fitness is reported as -0.712 ± 0.11. With T4W the abundance fitness was 0.01 ± 0.047. For D38L, the abundance fitness was -0.756 ± 0.083. For N1G, the abundance fitness was -0.154 ± 0.078. With K57I the abundance fitness was 0.18 ± 0.12. In the case of H22V, the abundance fitness is reported as -0.198 ± 0.041. D21F showed an abundance fitness of 0.024 ± 0.074. Work on K32A yielded an abundance fitness of -0.103 ± 0.041. With Y34E the abundance fitness was -0.2 ± 0.057. Work on W29V yielded an abundance fitness of -0.143 ± 0.045. In the case of I10C, the abundance fitness is reported as -0.026 ± 0.066. Work on V9F yielded an abundance fitness of 0.075 ± 0.045. Variant I10S has an abundance fitness of 0.116 ± 0.046. With L27M the abundance fitness was -0.153 ± 0.056. Work on F44L yielded an abundance fitness of -0.217 ± 0.047. In the case of Q25E, the abundance fitness is reported as 0.022 ± 0.045. L43P showed an abundance fitness of -0.128 ± 0.064. In the case of N68R, the abundance fitness is reported as -0.275 ± 0.045. In the case of E51T, the abundance fitness is reported as 0.026 ± 0.052. Work on Y34G yielded an abundance fitness of -0.254 ± 0.041. Work on T20L yielded an abundance fitness of -0.198 ± 0.05. L76N gave an abundance fitness of -0.794 ± 0.33. D58W gave an abundance fitness of -0.132 ± 0.066. L79K gave an abundance fitness of -0.014 ± 0.092. With L63F the abundance fitness was -0.071 ± 0.11. In the case of I47N, the abundance fitness is reported as -0.492 ± 0.2. For I47C, the abundance fitness was -0.163 ± 0.071. For D38C, the abundance fitness was -0.289 ± 0.085. With W29G the abundance fitness was 0.111 ± 0.03. Variant D48F has an abundance fitness of -0.399 ± 0.13. For N68Q, the abundance fitness was 0.085 ± 0.066. Work on L79I yielded an abundance fitness of 0.061 ± 0.11. For R62M, the abundance fitness was 0.097 ± 0.089. R7K showed an abundance fitness of 0.018 ± 0.049. Variant E81V has an abundance fitness of -0.155 ± 0.088. In the case of E51N, the abundance fitness is reported as -0.092 ± 0.096. In the case of A69W, the abundance fitness is reported as -0.203 ± 0.14. In the case of V39P, the abundance fitness is reported as -0.295 ± 0.072. For T20P, the abundance fitness was 0.06 ± 0.058. Work on C53I yielded an abundance fitness of -0.099 ± 0.051. For Q45L, the abundance fitness was -0.241 ± 0.047. In the case of N68A, the abundance fitness is reported as 0.013 ± 0.047. S19D gave an abundance fitness of -0.014 ± 0.061. Work on N46S yielded an abundance fitness of 0.012 ± 0.044. Variant E51W has an abundance fitness of -0.267 ± 0.042. Work on L72G yielded an abundance fitness of -0.953 ± 0.086. In the case of L79Q, the abundance fitness is reported as -0.007 ± 0.087. For H22N, the abundance fitness was 0.074 ± 0.066. W18H showed an abundance fitness of -1.04 ± 0.46. Work on P15I yielded an abundance fitness of -0.171 ± 0.072. Variant R8D has an abundance fitness of 0.116 ± 0.067. With W26P the abundance fitness was -0.956 ± 0.17. Variant Y67Q has an abundance fitness of 0.079 ± 0.12. With Q25G the abundance fitness was -0.095 ± 0.034. I10Q showed an abundance fitness of 0.129 ± 0.056. With K50D the abundance fitness was -0.004 ± 0.065. A30V showed an abundance fitness of -0.095 ± 0.046. H22D gave an abundance fitness of -0.014 ± 0.057. For E33W, the abundance fitness was -0.169 ± 0.05. Variant N68S has an abundance fitness of 0.011 ± 0.054. M55G gave an abundance fitness of -0.807 ± 0.087. Variant K50I has an abundance fitness of -0.1 ± 0.063. In the case of R7T, the abundance fitness is reported as 0.021 ± 0.048. P15L gave an abundance fitness of -0.41 ± 0.056. T4R showed an abundance fitness of -0.149 ± 0.037. R62V gave an abundance fitness of -0.063 ± 0.061. D48L gave an abundance fitness of -0.521 ± 0.06. N46K showed an abundance fitness of -0.104 ± 0.059. For D58T, the abundance fitness was -0.072 ± 0.087. R7N showed an abundance fitness of -0.09 ± 0.074. Work on L27F yielded an abundance fitness of -0.493 ± 0.11. For W26Y, the abundance fitness was 0.011 ± 0.073. For E6M, the abundance fitness was 0.024 ± 0.059. Work on L76V yielded an abundance fitness of -0.105 ± 0.067. I41M showed an abundance fitness of -0.061 ± 0.056.
